From the RNAGym collection of RNA variant scans (doi:10.1073/pnas.2313332121)
Variants at the floor of the assay were thinned out.

B1: TPR 5TU (parent)
chain: GGAUCUUCUCGAUCUAACAAAAAAGACAAAUCUGCCACAAAGCUUGAGAGCAUCUUCGGAUGCAGAGGCGGCAGCCUUCGGUGGCGCGAUAGCGCCAACGUUCUCAACUAUGACACGCAAAACGCGUGCUCCGUUGAAUGGAGUUUAUCAUG

Variants of: B1
Test: polymerase ribozyme fitness, log enrichment relative to wild type (log ratio); higher = more active; in vitro selection for triplet polymerase activity
In short: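 Frozen incubation at −7 °C formed the core of a single, triplicate in vitro selection round applied to PCR-built, transcribed mutant libraries of each subunit of a heterodimeric triplet polymerase ribozyme. Extended constructs were gel-excised, captured with streptavidin beads and amplified by RT-PCR, and input and output libraries were Illumina-sequenced with a filter of ≥10 input reads and ≥1 read per output. Fitness is the logarithm of genotype enrichment relative to wild-type enrichment, with inverse-variance-weighted replicate averaging, and the logarithm is base 2.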

Variant	polymerase ribozyme fitness (log ratio)
U6A G42C A49C A52C C75U C85U A91U	≤ -4.2
U6A C85U	-0.519
U6C A23G A91U A106G	≤ -4.2
C5U U15A A17G C18U G42A U53A U55A A60C G68C C79U A91C A97G	≤ -4.2
U6A G11A A64C C72U C87U A120G C149A	≤ -4.2
U6A A37G G80A C87A U102G G152A	≤ -4.2
U6C A49G G59A G92A U111A	≤ -4.2
C5U U56A C75U G83C	-0.766
U6A U61A C93A	≤ -4.2
U6A G25A A26C G50U A52G C76G C118G G136A	≤ -4.2
U6A A52C G81U C85G	-3.49
U6A G86C	-2.98
C5U C54U U82A C95G A150U	-1.62
U6A A24C G48A C93U U127G U144A	≤ -4.2
C5U G84A C95A	0.351
C5U U13A C14A U53A U55A C76A A120U G124C	≤ -4.2
C5U A40C C54G G92A A121U C132U U146A	≤ -4.2
C5U U7C A21U G86A C131A	-4.16
C5U G74A A91U C93G	≤ -4.2
C5U G84A A150C	≤ -4.2
U6A C69A G92U A98G U111C G152C	≤ -4.2

Variant	polymerase ribozyme fitness (log ratio)
U6A A22G C125U	-0.424
U6C A17U A64U A73U C85G U127A U130G A142G	≤ -4.2
C5U C87U	0.457
C5U C51A	-0.999
U6A A16U A107C C131G	≤ -4.2
C5U A24G G94A C123U G140U	≤ -4.2
C5U A24U C32G U53G C123G A147G U151G	≤ -4.2
C5U A28C A64U G84A	≤ -4.2
C5U G84U U148G	≤ -4.2
C5U G92A C114U	-3.86
U6A A26C A98U G136U	-4.09
C5U G50C C87U C103G A121G C123U C125G	≤ -4.2
U6A U7G C36U C85A U144A	≤ -4.2
C5U G92A	-1.32
U6A G81C G94U C125U	-2.57
U6A A22C C75U G84A A97G C108G A113C C116A U135G	≤ -4.2
U6A C8A A19U A20U C72U U77A U101A	≤ -4.2
U6A C18G U56A A106G	-0.358
U6A G58U U61A A66G U82C U139C G152A	≤ -4.2
U6A A23C G68U G100U C131U G143U	≤ -4.2
U6C A39C A66G U90A C93A C99A G100C C103A C116G A147C	≤ -4.2

Variant	polymerase ribozyme fitness (log ratio)
U6A G11U A23C G25A C36A G50C C125U	≤ -4.2
C5U A40G G84A A97G	-3.39
C5U C8G A23U U45A G84C	≤ -4.2
C5U U13G A20C C27G G80A C87U U148G	≤ -4.2
C5U A23U C32U G74U G83A C114U G136U C149U	≤ -4.2
U6A C54A C95G A98U	-2.26
C5U U6G C79G	≤ -4.2
U6A G34A C69U A73G U77A C79A C87A C96U C105A A107U G136A U139A	≤ -4.2
C5U A52U G67U C93U C96U A115C	≤ -4.2
U6C A37C C93U	-3.12
C5U C38U C63A U77A C95U U127G G136U U144C	≤ -4.2
U6A A12G A17G A40G C96A A137G	-3.74
U6A C14G C85G U90G A113U	≤ -4.2
U6A U7G U31C G34A A41U	-3.68
U6A C93A	-2.58
C5U U55A	0.322
C5U C8G U9G U61G U77A G84A U146C	≤ -4.2
C5U U82A C85A C99A U101G G140C	≤ -4.2
C5U C54G	-0.591
C5U G11A A29U G70C G84A C96U	≤ -4.2
C5U C51U G84A A150G	-2.47

Variant	polymerase ribozyme fitness (log ratio)
U6C A17U U33C C51G C57G G83U C95G A98G U127G	≤ -4.2
U6A U44G A98U A107U	-1.58
C5U A28C U56A U77C G94A	≤ -4.2
C5U U13C C85U U101G C105A U109G A110G	≤ -4.2
C5U A23C A40C A49U G70C G94A	≤ -4.2
C5U U15G A39C A66U C95U	-4.2
C5U C54U U82A C95G A147U	-1.27
C5U A73U G83A	-0.929
C5U C8G A137U U145A A147C	≤ -4.2
C5U U15G U33C	-4.17
C5U C87U G94C	-2.15
U6A A16C U56A U61A C95U C114U	-3.64
U6A A12C C87G A89U	-3.27
U6A C38U U44A U82G C85U C95A U101G	≤ -4.2
U6A G68A G83C U90G C118U	≤ -4.2
C5U C8U A23C C85U C103A C116U	≤ -4.2
C5U A24C C79A G84A U104A A142G	≤ -4.2
C5U A37U C69U C95U	-1.02
U6C A40U U56A G59U C87U A98U C118U	-0.984
C5U C75A	-4.03
